According to US6462173B1, “Inhibitors of phosphoserine and phosphothreonine-proline-specific isomerases” (Max-Planck-Gesellschaft zur Forderung der, priority 1997, dated 2002):
Values belong to the molecule of their own block, whether it stands above or below them.

Experiments:
[1] = tested on: MPM-2 antigens; test: GST-Pin1 pull-down / depletion of MPM-2 antigens from HeLa cell extracts, MPM-2 immunoblotting; type: binding, human; settings: mitotic HeLa cell extracts, GST fusion proteins
Method: (§1) To detect Pin1-binding proteins, either HeLa cells were lysed in or Xenopus extracts were diluted in a buffer (buffer A) containing 50 mM Tris-HCl, pH 8.0, 200 mM NaCl, 100 mM NaF, 1 mM sodium orthovanadate, 10% glycerol, 1% Triton X100, 10 μg/ml aprotinin, 50 μg/ml phenylmethylsulfonyl fluoride and 1 mM DTT. The lysates were preclarified with boiled S. aureus bacteria (CalBiochem) and then incubated with 10 μl of agarose beads containing various GST-Pin1 proteins or control GST for 2 h at 4° C. The precipitated proteins were washed 5 times in the same buffer and subjected to immunoblotting analysis. Immunoprecipitation and immunoblotting analysis using MPM-2 antibody (Davis et al. 1983), which was kindly provided by J. Kuang, Pin1 antibodies (Lu et al., 1996, kindly provided by M. White or newly generated), anti-phospho.Tyr antibody (UBI), anti-Cdc25C (Ogg, et al., 1994) (from H. Piwnica-Worms and Santa Cruz Biotechnology), anti-Cdc27, anti-Plk1 (Zymed), anti-Cdc2 (Solomon, M. J., M. Glotzer, T. H. Lee, M. Philippe and M. W. Kirschner. Cell 63:1013-1024 (1991), anti-human Myt1, anti-human cyclin B1 and anti-Xenopus cyclin B were performed, as described previously in Lu and Hunter, 1995; Lu et al., 1996).
To determine whether GST-Pin1 can deplete MPM-2 antigens and to estimate what concentrations of Pin1 are required to completely deplete MPM-2 antigens, mitotic extracts were incubated with different amounts of GST-Pin1, followed by analyzing MPM-2 antigens remaining in the depleted supernatants. The total cellular Pin1 concentration in HeLa cells was estimated to be about 0.5 μM, based on immunoblotting analysis using anti-Pin1 antibodies with recombinant Pin1 protein as a standard.
To determine if the Pin1 mutants interact with mitotic phosphoproteins, GST-Pin1, -Pin1^R68,69A and -Pin1^H59A fusion proteins were incubated with interphase or mitotic HeLa cell extracts and associated proteins subjected to MPM-2 immunoblotting analysis. […] A few proteins including the most strongly reacting p55 band could still be recognized. […] Thus, mutating the residues that are implicated in binding either the substrate's putative phosphate group or the substrate's Pro residue abolish the ability of Pin1 to bind MPM-2 antigens.

[2] = tested on: Cdc25, Cdc27; test: Binding of GST-Pin1 mutants to Cdc25 or Cdc27
Method: as §1
Several known mitotic regulators such as cyclin B, Cdc25, Myt1, Plk1 and Cdc27 are phosphorylated at mitosis. […]

[3] = target: T1, mitotic GST-Cdc25 (Xenopus laevis, UniProt P30309); test: Cdc25 activity assay (activation of cyclin B/Cdc2, H1 kinase); type: biochemical; settings: 0.67 μM protein, 1 μM mitotic Cdc25
T1 construct: made in house
T1 sequence (P30309 1-550): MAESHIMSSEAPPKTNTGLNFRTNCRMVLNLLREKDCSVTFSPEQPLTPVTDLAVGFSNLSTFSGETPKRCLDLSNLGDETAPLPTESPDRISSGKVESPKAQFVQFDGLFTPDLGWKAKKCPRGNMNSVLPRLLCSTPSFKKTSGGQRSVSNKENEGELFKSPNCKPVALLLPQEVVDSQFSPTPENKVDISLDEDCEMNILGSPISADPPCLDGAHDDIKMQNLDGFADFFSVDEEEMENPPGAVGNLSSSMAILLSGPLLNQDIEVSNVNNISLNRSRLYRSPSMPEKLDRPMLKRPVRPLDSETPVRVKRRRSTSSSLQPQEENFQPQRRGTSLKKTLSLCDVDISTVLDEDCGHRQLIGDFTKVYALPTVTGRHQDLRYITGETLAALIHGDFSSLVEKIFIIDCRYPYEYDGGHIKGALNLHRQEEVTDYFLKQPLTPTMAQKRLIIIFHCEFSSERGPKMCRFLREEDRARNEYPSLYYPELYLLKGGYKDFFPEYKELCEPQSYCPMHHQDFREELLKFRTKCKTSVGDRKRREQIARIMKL
Method: Cdc2 was assayed using histone H1 as a substrate, as previously described in Murray, 1991; Lu and Hunter, (1995).
A subthreshold concentration of GST cyclin B (10 μg) was added to 1 ml of Xenopus interphase extract for thirty min at room temperature (Solomon, M. J., M. Glotzer, T. H. Lee, M. Philippe and M. W. Kirschner, Cell 63:1013-1024 (1990). This was diluted 8 fold in XB+3 mM DTT, rotated for 1 h with 3 ml of GST agarose beads, washed 3 times in XBIP (XB+500 mM NaCl and 1% NP40+2 mM DTT), washed 2 times (once overnight) in EB (80 mM β glycerol phosphate, 15 mM EGTA, 15 mM MgCl2)+2 mM DTT, 500 mM NaCl and 1% NP40, and finally twice with EB+10 mM DTT. These Cdc25 assay beads were stored at 4° C. for up to 1 month. Mitotic GST-Cdc25 was purified by incubating 22 μg of GST-Cdc25, in a Xenopus mitotic extract for 30 min at 23° C., this was diluted 8 fold in XB and rotated with 50 μl of glutathione-Agarose beads (Sigma) for 1 hr at 4° C. The beads were washed 5 times in XB-IP, twice in XB+2 mM DTT and eluted in 25 μl XB+2 mM reduced GSH. The final concentration of Mitotic GST-Cdc25 was 0.36 mg/ml. […] Phosphoimager analysis of the H1 kinase assays were quantified by the Molecular Dynamics ImageQuant 3.3 software. […] The most reproducible way to quantify the Cdc25 activity in this assay was by determining the endpoint dilution of Cdc25 which could activate Cdc2. […]

[4] = target: T2, Pin1 (Homo sapiens, UniProt Q13526); test: Pin1 precipitation from interphase and mitotic HeLa extracts probed with antibodies to known mitotic phosphoproteins; type: binding
T2 construct: fusion protein containing full length Pin1 was bacterially expressed, purified; made in house
Method: as §1
Several known mitotic regulators such as cyclin B, Cdc25, Myt1, Plk1 and Cdc27 are phosphorylated at mitosis. To identify at least a few of the many Pin1 binding proteins, Pin1-binding proteins were precipitated from HeLa cells, or Xenopus extracts and probed with antibodies specific for known mitotic phosphoproteins. As shown previously, levels of Plk1 and cyclin B1 increased at mitosis, whereas similar amounts of Cdc25C were present in interphase and mitotic HeLa cells. […] Similarly, only the mitotic, but not the interphase form of Xenopus Cdc27 was precipitated by Pin1.

[5] = target: T2, Pin1; test: Confirmation of interaction between Pin1 and predicted Pin1 substrates; settings: Pin1 binding confirmed in vitro (SC35 inferred from colocalization)
Method: On the basis of amino acid preferences deduced in the 6 positions surrounding the pS-P motif for optimal Pin1 binding, a weighted screening of the SWISS-PROT sequence database. Protein sequence database screening was performed with the program INDOVINATOR, using an entropy-based weighing technique to score for relative information content at each amino acid position flanking the pS/pT-P motif with the quantitative peptide library results, which are shown qualitatively in Table 3. […] Many of these proteins are involved in regulation of the cell cycle, cytoskeletal/spindle structure, DNA replication, transcription or RNA processing (Table 4).
Several of these predicted proteins, such as Rab4, Cdc25 and NIMA, undergo mitosis-specific phosphorylation (R. Heald and F. McKeon, Cell 61:579 (1990); E. Bailly, et al., Nature 350:715 (1991); A. Blangy, et al., Cell 83:1159 (1995): J. Kuang, et al., Mol. Biol. Cell 5:135 (1994); X. S. Ye, et al., EMBO J. 14:986 (1995)). Cdc25 and NIMA also binds to Pin1 in a phosphorylation-dependent manner, as described herein. Other proteins identified in this search, however, had not been previously suspected of interacting with Pin1; therefore, a few were further investigated as example cases. […] Thus, Pin1 binds a wide functional range of mitotic phosphoproteins.

[6] = target: T2, Pin1; test: Precipitation with GST-Pin1 beads of synthesized phosphoproteins incubated with interphase and mitotic Xenopus extracts; type: binding; set-up: key: +: a week but above background interaction; ++: readily detectable interaction; +++: strong interaction; settings: mitotic Xenopus extracts
Method: The binding between Pin1 and all selected mitotic phosphoproteins was assayed by incubating synthesized proteins with interphase and mitotic Xenopus extracts, followed by precipitation with GST-Pin1beads. The Pin1 interactions with those proteins indicated with * were also confirmed by GST-Pin1 pull-down assay from endogenous interphase and mitotic HeLa cell extracts. +, a week but above background interaction; ++, readily detectable interaction; +++, strong interaction.
The mitotic phosphoproteins were translated in vitro using the TNT coupled transcription/translation kit (Promega) in a total volume of 10 μl in the presence of 8 μCi [^35S]methionine (1000 Ci/mmol) for 2 h at 30° C. They were then incubated in xenopus interphase and mitotic extracts as described (Stukenberg et al., 1997). These incubated clones were precipitated by Pin1 beads as described below. The Xenopus Mos and Weel clones were a kind gift of M. Murakami, G, F. Woude and J. Cooper; the Xenopus Cdc25 clone was a generous gift of W. Dunphy, T3 and T3S2 Cdc25 mutants were kindly provided by J. Maller (Izumi and Maller, 1993).
as §1
To gain a sense of the generality of the interaction between Pin1 and mitotic phosphoproteins and to confirm the Pin1 interaction with target proteins is indeed mediated by phosphorylation, the ability of Pin1 to bind other known mitotic phosphoproteins and a set of mitotic phosphoproteins identified by a systematic phosphoprotein screen (Stukenberg et al., Curr Biol 7:338-348 (1997). Proteins synthesized in vitro were phosphorylated in a cell cycle specific manner by incubating them in either Xenopus interphace or mitotic extracts. These labeled protein were subsequently incubated with GST-Pin1 beads that were extensively washed and the bound proteins analyzed by SDS-PAGE. To validate this method, Cdc25 was first tested. Again, the mitotically phosphorylated form of in vitro translated Cdc25 could be precipitated by GST-Pin1 beads. However, Cdc25 was not recognized by Pin1 if it was incubated in interphase extracts. […] Out of the 13 mitotic phosphoproteins examined, Pin1 bound 10 in a mitosis and phosphorylation-dependent manner (summarized in Table 1), including Weel, MP75 and MP110, MP75 and MP110 are Xenopus proteins related to microtubule-associated protein E-MAP-115 and the fission yeast G2 transcription factor Cdc5, respectively.

[7] = tested on: phosphorylated and unphosphorylated peptide substrates; AEPF, AAPF; test: PPIase activity of site-directed Pin1 mutants and parvulin; type: biochemical
From the text: To test these predictions from the model, site-directed Pin1 mutants were generated and their PPIase activity assayed as described herein and in K. P. Lu, S. D. Hanes, T. Hunter, Nature 380:544 (1996); K. P. Lu and T. Hunter, Cell 81:413 (1995).
Site-directed mutations of Pin1 were introduced using PCR-based techniques and verified by DNA sequencing. The corresponding mutant proteins were expressed and purified using the same procedures as those described for wild-type Pin1. PPIase activity was measured, as described previously (Lu et al., 1996), with the exception that the absorbance of p-nitroaniline (at 395 nM) was followed every second for 2-10 min. and data were analyzed offline using a kinetic computer program written by G. Tucker-Kellogg in the C.

T2 sequence (Q13526 whole entry, the tested form may be a part): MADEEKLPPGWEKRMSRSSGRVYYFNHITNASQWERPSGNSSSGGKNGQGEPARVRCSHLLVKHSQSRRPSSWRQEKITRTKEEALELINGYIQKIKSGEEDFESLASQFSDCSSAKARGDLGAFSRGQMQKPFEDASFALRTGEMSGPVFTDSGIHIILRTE

Molecule: Pin1^H59A: Pin1 mutant with Ala substitution at His-59
- binding of MPM-2 antigens [1]: significantly reduced compared to the wild-type protein
- interaction with Cdc25 or Cdc27 [2]: neither mutant Pin1^R68,69A nor Pin1^H59A interacted with Cdc25 or Cdc27

Molecule: Pin1^R68,69A: Pin1 mutant with Ala substitutions at Arg68 and Arg69
- binding of MPM-2 antigens [1]: significantly reduced compared to the wild-type protein
- interaction with Cdc25 or Cdc27 [2]: neither mutant Pin1^R68,69A nor Pin1^H59A interacted with Cdc25 or Cdc27
- effect on Cdc25 activity [3]: neither the mutant Pin1^R68,69A at the same concentration (0.67 μM), or BSA at a 25 fold higher concentration (15 μM) had a significant inhibitory effect on Cdc25 activity

- Binding Confirmed [5]: Yes
- Interaction with Pin1, Mitotic [6]: +++
Molecule: Plk1: Polo-like kinase, mitotic phosphoprotein
- precipitation by Pin1 [4]: bound selectively only to the mitotically hyperphosphorylated form

B1: Parvulin: prototype of the Pin1 family of PPIases, R68 and R69 replaced by Glu (protein, UniProt P0A9L5 2-93, looked up)
Peptidyl-prolyl cis-trans …: AKTAAALHILVKEEKLALDLLEQIKNGADFGKLAKKHSICPSGKRGGDLGEFRQGQMVPAFDKVVFSCPVLEPTGPLHTQFGYHIIKVLYRN
- isomerization of pS-P peptidyl bonds ([7]; phosphorylated peptide): failed to catalyze the isomerization of pS-P peptidyl bonds
- catalytic activity for the unphosphorylated peptide substrate ([7]; unphosphorylated peptide): very effective in catalyzing the P isomerization of the unphosphorylated peptide

- Binding Confirmed [5]: Yes
B2: Cdc25C: cell cycle regulatory protein, predicted Pin1 substrate; human Cdc25C in HeLa extracts (protein)
chain: STELFSSTREEGSSGSGPSFRSNQRKMLNLLLERDTSFTVCPDVPRTPVGKFLGDSANLSILSGGTPKRCLDLSNLSSGEITATQLTTSADLDETGHLDSSGLQEVHLAGMNHDQHLMKCSPAQLLCSTPNGLDRGHRKRDAMCSSSANKENDNGNLVDSEMKYLGSPITTVPKLDKNPNLGEDQAEEISDELMEFSLKDQEAKVSRSGLYRSPSMPENLNRPRLKQVEKFKDNTIPDKVKKKYFSGQGKLRKGLCLKKTVSLCDITITQMLEEDSNQGHLIGDFSKVCALPTVSGKHQDLKYVNPETVAALLSGKFQGLIEKFYVIDCRYPYEYLGGHIQGALNLYSQEELFNFFLKKPIVPLDTQKRIIIVFHCEFSSERGPRMCRCLREEDRSLNQYPALYYPELYILKGGYRDFFPEYMELCEPQSYCPMHHQDHKTELLRCRSQSKVQEGERQLREQIALLVKDMSP
- precipitation by Pin1 [4]: bound selectively only to the mitotically hyperphosphorylated form
